How the values were obtained:
[1] = biological target: SsoDpo1 exonuclease mutant (D231A/D318A) (Sulfolobus solfataricus P2) (UniProt P26811); assay: native gel or EMSA
[2] = biological target: SsoDpo1 exonuclease mutant (D231A/D318A) (Sulfolobus solfataricus P2) (UniProt P26811); assay: ITC
[3] = biological target: T1, SsoDpo1 exo- (B-family DNA polymerase 1) (Sulfolobus solfataricus, UniProt P26811 1-882, D231A;D318A); assay: ITC
T1 sequence: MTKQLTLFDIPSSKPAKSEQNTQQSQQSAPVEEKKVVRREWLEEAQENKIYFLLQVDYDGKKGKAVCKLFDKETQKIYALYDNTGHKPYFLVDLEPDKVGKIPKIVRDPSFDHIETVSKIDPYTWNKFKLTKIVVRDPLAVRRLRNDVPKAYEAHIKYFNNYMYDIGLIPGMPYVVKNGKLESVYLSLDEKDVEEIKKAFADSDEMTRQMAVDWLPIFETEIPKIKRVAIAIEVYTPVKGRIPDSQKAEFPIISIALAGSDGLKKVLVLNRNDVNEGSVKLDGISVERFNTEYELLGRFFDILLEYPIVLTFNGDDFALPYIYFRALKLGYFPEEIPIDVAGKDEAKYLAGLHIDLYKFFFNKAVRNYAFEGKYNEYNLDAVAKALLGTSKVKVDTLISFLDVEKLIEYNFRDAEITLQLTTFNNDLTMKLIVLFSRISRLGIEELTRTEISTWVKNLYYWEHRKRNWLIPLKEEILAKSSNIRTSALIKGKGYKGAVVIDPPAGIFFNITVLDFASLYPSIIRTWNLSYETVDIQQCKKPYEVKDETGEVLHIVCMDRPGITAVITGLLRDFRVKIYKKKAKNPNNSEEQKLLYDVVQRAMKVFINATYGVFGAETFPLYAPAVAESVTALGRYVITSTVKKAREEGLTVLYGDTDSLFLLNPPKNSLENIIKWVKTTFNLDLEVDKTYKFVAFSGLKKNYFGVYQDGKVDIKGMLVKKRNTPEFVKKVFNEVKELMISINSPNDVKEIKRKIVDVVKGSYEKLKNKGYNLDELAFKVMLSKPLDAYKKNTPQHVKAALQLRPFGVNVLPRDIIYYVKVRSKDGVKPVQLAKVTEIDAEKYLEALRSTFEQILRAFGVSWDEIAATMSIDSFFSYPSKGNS

[4] = biological target: T1, SsoDpo1 exo- (B-family DNA polymerase 1); assay: EMSA
[5] = biological target: T1, SsoDpo1 exo- (B-family DNA polymerase 1); assay: fluorescence anisotropy

## SsoDpo1 exonuclease mutant (D231A/D318A) (from UniProt P26811 1-882) (enzyme)
[1]
  stoichiometry N: 3.5
[2]
  stoichiometry N: 2.84

B1: short p/tDNA 21/31-mer (dsDNA)
DNA 1: GCTGTGCTCTCGCCGCGTGCC
DNA 2: TATCTTCTATGGCACGCGGCGAGAGCACAGC
[3]
  Kd: 1200 ± 100 nM

B2: long p/tDNA 28/66-mer (dsDNA)
DNA 1: CACCTCTCCCTACGCTTCCCACCCACCCCGACCGGCATCTGCTATGGTACGCTGAGCGAGAGTAGC
DNA 2: GCTACTCTCGCTCAGCGTACCATAGCAG
[4]
  Kd: 0.1 ± 0.01 nM

B3: Cy5 p/tDNA hairpin (structured_DNA)
DNA: TTTTTTTTTTTTTTTCGAATGGCGCTTTGCCTGGTTTTTACCAGGCAAAGCGCCATTCG
[5]
  binding result: binds

Source: publication PMC2790891
